Substitutions are numbered along the chain they refer to.
B1: 1CP-112: humanized anti-CDCP1 antibody produced by 8E5; VH SEQ ID NO: 347, VL SEQ ID NO: 357 (antibody, V domains shown)
VH: QVQLVQSGSELKKPGASVKVSCKASGYTLTDFSMHWVRQAPGQGLEWMGWINTETGAPTYADDFKGRFVFSLDTSVSTAYLQISSLKAEDTAVYYCSRGRDYDPHFDYWGQGTLVTVSS
VL: EIVLTQSPATLSLSPGERATLSCRASQSISDFLHWYQQKPGQAPRLLIKYASQSISGIPARFSGSGPGSDFTLTISSVEPEDFAVYYCQSAHSFPYTFGQGTKLEIK
modifications: humanized antibody 8E5 heavy chain variable region 01; humanized antibody 8E5 light chain variable region 01
B2: 1CP-113: humanized anti-CDCP1 antibody produced by 8E5; VH SEQ ID NO: 348, VL SEQ ID NO: 357 (antibody, V domains shown)
VH: B1 VH with F70L
VL: B1 VL
modifications: humanized antibody 8E5 heavy chain variable region 01; humanized antibody 8E5 light chain variable region 01
B3: 1CP-114: humanized anti-CDCP1 antibody produced by 8E5; VH SEQ ID NO: 349, VL SEQ ID NO: 357 (antibody, V domains shown)
VH: B1 VH with A16E, F70L, A88S
VL: B1 VL
modifications: humanized antibody 8E5 heavy chain variable region 03; humanized antibody 8E5 light chain variable region 01
B4: 1CP-153: humanized anti-CDCP1 antibody produced by 8C9; VH SEQ ID NO: 345, VL SEQ ID NO: 354 (antibody, V domains shown)
VH: EVQLVESGGGLVQPGRSLRLSCTTSGLTFTHYHMSWVRQAPGKGPEWVAIIRNKAYGYTTDYSASVRGRFTISRDDSKSILYLQMNSLKTEDTAVYYCVREGGYGYDGTFAYWGQGTLVTVSS
VL: DIQMTQSPSSLSASVGDRVTITCRASESVDNYGISFMNWFQQKPGQAPKLLIYAASNQGSGVPSRFSGSGSGTDFTLTISSMQPEDFATYYCQQSKEVPRTFGGGTKVEIK
modifications: humanized antibody 8C9 heavy chain variable region 03; humanized antibody 8C9 light chain variable region 01
B5: 1CP-154: humanized anti-CDCP1 antibody produced by 8C9; VH SEQ ID NO: 346, VL SEQ ID NO: 354 (antibody, V domains shown)
VH: B4 VH with A40P, G44A
VL: B4 VL
modifications: humanized antibody 8C9 heavy chain variable region 04; humanized antibody 8C9 light chain variable region 01
B6: 1CP-159: humanized anti-CDCP1 antibody produced by 8C9; VH SEQ ID NO: 343, VL SEQ ID NO: 356 (antibody, V domains shown)
VH: B4 VH with T24A, V37F, P45L
VL: B4 VL with A47P, Y91F
modifications: humanized antibody 8C9 heavy chain variable region 01; humanized antibody 8C9 light chain variable region 03
B7: 1CP-160: humanized anti-CDCP1 antibody produced by 8C9; VH SEQ ID NO: 344, VL SEQ ID NO: 356 (antibody, V domains shown)
VH: B4 VH with P45L
VL: B4 VL with A47P, Y91F
modifications: humanized antibody 8C9 heavy chain variable region 02; humanized antibody 8C9 light chain variable region 03
B8: 1CP-155: humanized anti-CDCP1 antibody produced by 8C9; VH SEQ ID NO: 343, VL SEQ ID NO: 355 (antibody, V domains shown)
VH: B4 VH with T24A, V37F, P45L
VL: B4 VL with A47P
modifications: humanized antibody 8C9 heavy chain variable region 01; humanized antibody 8C9 light chain variable region 02
B9: 1CP-162: humanized anti-CDCP1 antibody produced by 8C9; VH SEQ ID NO: 346, VL SEQ ID NO: 356 (antibody, V domains shown)
VH: B4 VH with A40P, G44A
VL: B4 VL with A47P, Y91F
modifications: humanized antibody 8C9 heavy chain variable region 04; humanized antibody 8C9 light chain variable region 03
B10: 1CP-156: humanized anti-CDCP1 antibody produced by 8C9; VH SEQ ID NO: 344, VL SEQ ID NO: 355 (antibody, V domains shown)
VH: B4 VH with P45L
VL: B4 VL with A47P
modifications: humanized antibody 8C9 heavy chain variable region 02; humanized antibody 8C9 light chain variable region 02
B11: 1CP-158: humanized anti-CDCP1 antibody produced by 8C9; VH SEQ ID NO: 346, VL SEQ ID NO: 355 (antibody, V domains shown)
VH: B4 VH with A40P, G44A
VL: B4 VL with A47P
modifications: humanized antibody 8C9 heavy chain variable region 04; humanized antibody 8C9 light chain variable region 02
B12: 1CP-161: humanized anti-CDCP1 antibody produced by 8C9; VH SEQ ID NO: 345, VL SEQ ID NO: 356 (antibody, V domains shown)
VH: B4 VH
VL: B4 VL with A47P, Y91F
modifications: humanized antibody 8C9 heavy chain variable region 03; humanized antibody 8C9 light chain variable region 03

Biological target: T1, HuCDCP1-C (Homo sapiens, UniProt Q9H5V8)
T1 construct: made in house; host or cells: HEK-293T
T1 sequence (Q9H5V8 30-667): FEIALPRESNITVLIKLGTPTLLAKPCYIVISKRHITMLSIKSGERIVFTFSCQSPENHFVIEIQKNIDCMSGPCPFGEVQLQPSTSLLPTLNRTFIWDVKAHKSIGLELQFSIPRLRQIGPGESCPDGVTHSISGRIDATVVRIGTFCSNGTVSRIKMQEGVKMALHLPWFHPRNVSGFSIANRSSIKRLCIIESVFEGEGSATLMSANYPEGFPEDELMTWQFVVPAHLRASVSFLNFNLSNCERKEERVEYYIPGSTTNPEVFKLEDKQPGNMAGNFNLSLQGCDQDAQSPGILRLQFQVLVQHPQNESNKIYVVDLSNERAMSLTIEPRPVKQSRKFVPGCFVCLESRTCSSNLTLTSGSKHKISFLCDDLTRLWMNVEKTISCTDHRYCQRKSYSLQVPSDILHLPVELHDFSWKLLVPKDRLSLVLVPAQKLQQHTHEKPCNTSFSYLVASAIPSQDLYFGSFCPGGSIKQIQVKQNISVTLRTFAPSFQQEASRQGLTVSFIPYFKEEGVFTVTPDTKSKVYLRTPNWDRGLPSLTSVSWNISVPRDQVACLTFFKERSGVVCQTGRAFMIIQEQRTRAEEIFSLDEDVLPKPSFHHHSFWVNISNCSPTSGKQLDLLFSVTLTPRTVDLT
Experiment: Caterra affinity of humanized anti-CDCP1 antibodies
Format: binding
Conditions: HuCDCP1-C 2 μg/ml immobilized
Protocol: The humanized anti-CDCP1 antibodies obtained from Example 11 were subjected to gene cloning, constructed into pTT5 expression vector for a small amount of expression in CHO cells (Expi-CHOS: Gibco A29127), and purified with an Fc affinity column (AT Protein A Diamond Plus. No. AA402312). Antibody purity was analyzed by HPLC and determined by Nanodrop. High-throughput affinity assay was carried out for a small amount of antibodies by Caterra.

| Molecule | ka [M⁻¹ s⁻¹] | kd [s⁻¹] |
| --- | --- | --- |
| B1 | 136000 | 5e-05 |
| B2 | 143000 | 5.9e-05 |
| B3 | 161000 | 0.00246 |
| B4 | 108000 | 0.000388 |
| B5 | 118000 | 0.000346 |
| B6 | 18000 | 0.000767 |
| B7 | 110000 | 0.00042 |
| B8 | 15800 | 0.000579 |
| B9 | 113000 | 0.000305 |
| B10 | 123000 | 0.000441 |
| B11 | 109000 | 0.000321 |
| B12 | 114000 | 0.000365 |

— patent US20260250410A1, “ANTIBODY AND USE THEREOF” (SICHUAN HUIYU PHARMACEUTICAL CO., LTD., priority 2022, published 2026)
